Results taken from patent US20240366722A1 (ACCELERON PHARMA, published 2024).

Legend:
Test in all cases: Biacore, steady-state affinity fit
GDF11 = target: T1, GDF11 (UniProt O95390 299-407)
T1 sequence (looked up): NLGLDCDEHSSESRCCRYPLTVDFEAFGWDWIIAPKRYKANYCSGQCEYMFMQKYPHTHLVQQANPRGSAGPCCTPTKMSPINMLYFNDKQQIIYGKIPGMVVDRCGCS
Description: (§1) The affinity of ActRIIB variants and other ActRIIB-hFc proteins for several ligands was evaluated in vitro with a Biacore™ instrument. Kd values were obtained by steady-state affinity fit due to the very rapid association and dissociation of the complex, which prevented accurate determination of kₒₙ and koff.

activin B = target: T2, activin B (UniProt P09529 293-407)
T2 sequence (looked up): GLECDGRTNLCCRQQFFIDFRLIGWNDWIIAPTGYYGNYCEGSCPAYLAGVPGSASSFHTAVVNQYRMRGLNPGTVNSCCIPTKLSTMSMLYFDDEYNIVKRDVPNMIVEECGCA
Description: as §1

activin A = target: T3, activin A (UniProt P08476 311-426)
T3 construct: also called ActA
T3 sequence (looked up): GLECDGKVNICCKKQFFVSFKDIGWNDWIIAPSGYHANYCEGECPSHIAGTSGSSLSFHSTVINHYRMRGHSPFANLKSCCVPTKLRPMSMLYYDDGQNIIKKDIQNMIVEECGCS
Description: as §1

B1: ActRIIB(L79D 25-131)-hFc (Fc fusion)
chain: ETRECIYYNANWELERTNQSGLERCEGEQDKRLHCYASWRNSSGTIELVKKGCWDDDFNCYDRQECVATEENPQVYFCCCEGNFCNERFTHLPEAGGPEVTYEPPPTGGGTHTCPPCPAPELLGGPSVFLFPPKPKDTLMISRTPRVTCVVVDVSHEDPEVKFNWYVDGVEVHNAKTKPREEQYNSTYRVVSVLTVLHQDWLNGKEYKCKVSNKALPAPIEKTISKAKGQPREPQVYTLPPSREEMTKNQVSLTCLVKGFYPSDIAVEWESNGQPENNYKTTPPVLDSDGSFFLYSKLTVDKSRWQQGNVFSCSVMHEALHNHYTQKSLSLSPGK
notes: Cell purified form without leader
Kd (GDF11): 0.074 nM
Kd (activin B): 0.621 nM
Kd (activin A): 22.9 nM
